The values below come from IntAct's records for PubMed 29892012.

The chains are these.
B1: Ribosome assembly protein METTL17, mitochondrial (Homo sapiens), Q9H7H0 (parent)
chain: MAAALKCLLTLGRWCPGLGVAPQARALAALVPGVTQVDNKSGFLQKRPHRQHPGILKLPHVRLPQALANGAQLLLLGSAGPTMENQVQTLTSYLWSRHLPVEPEELQRRARHLEKKFLENPDLSQTEEKLRGAVLHALRKTTYHWQELSYTEGLSLVYMAARLDGGFAAVSRAFHEIRARNPAFQPQTLMDFGSGTGSVTWAAHSIWGQSLREYMCVDRSAAMLVLAEKLLKGGSESGEPYIPGVFFRQFLPVSPKVQFDVVVSAFSLSELPSKADRTEVVQTLWRKTGHFLVLVENGTKAGHSLLMDARDLVLKGKEKSPLDPRPGFVFAPCPHELPCPQLTNLACSFSQAYHPIPFSWNKKPKEEKFSMVILARGSPEEAHRWPRITQPVLKRPRHVHCHLCCPDGHMQHAVLTARRHGRDLYRCARVSSWGDLLPVLTPSAFPPSTAQDPSES
partner: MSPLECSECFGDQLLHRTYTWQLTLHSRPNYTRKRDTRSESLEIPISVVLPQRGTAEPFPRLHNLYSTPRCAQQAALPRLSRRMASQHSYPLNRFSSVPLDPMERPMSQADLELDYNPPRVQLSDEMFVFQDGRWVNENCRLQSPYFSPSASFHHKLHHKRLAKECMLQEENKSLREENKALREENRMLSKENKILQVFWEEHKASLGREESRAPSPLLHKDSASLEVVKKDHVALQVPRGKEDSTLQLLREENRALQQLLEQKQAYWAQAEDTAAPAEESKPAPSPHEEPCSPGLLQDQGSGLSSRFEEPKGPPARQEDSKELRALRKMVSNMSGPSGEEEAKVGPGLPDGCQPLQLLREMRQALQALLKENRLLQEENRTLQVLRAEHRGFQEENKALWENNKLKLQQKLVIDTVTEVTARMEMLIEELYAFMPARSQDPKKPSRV
B2: Cell division cycle-associated 7-like protein (Homo sapiens), Q96GN5 (parent)
chain: MELATRYQIPKEVADIFNAPSDDEEFVGFRDDVPMETLSSEESCDSFDSLESGKQQDVRFHSKYFTEELRRIFIEDTDSETEDFAGFTQSDLNGKTNPEVMVVESDLSDDGKASLVSEEEEDEEEDKATPRRSRSRRSSIGLRVAFQFPTKKLANKPDKNSSSEQLFSSARLQNEKKTILERKKDCRQVIQREDSTSESEDDSRDESQESSDALLKRTMNIKENKAMLAQLLAELNSMPDFFPVRTPTSASRKKTVRRAFSEGQITRRMNPTRSARPPEKFALENFTVSAAKFAEEFYSFRRRKTIGGKCREYRRRHRISSFRPVEDITEEDLENVAITVRDKIYDKVLGNTCHQCRQKTIDTKTVCRNQGCCGVRGQFCGPCLRNRYGEDVRSALLDPDWVCPPCRGICNCSYCRKRDGRCATGILIHLAKFYGYDNVKEYLESLQKELVEDN
partner: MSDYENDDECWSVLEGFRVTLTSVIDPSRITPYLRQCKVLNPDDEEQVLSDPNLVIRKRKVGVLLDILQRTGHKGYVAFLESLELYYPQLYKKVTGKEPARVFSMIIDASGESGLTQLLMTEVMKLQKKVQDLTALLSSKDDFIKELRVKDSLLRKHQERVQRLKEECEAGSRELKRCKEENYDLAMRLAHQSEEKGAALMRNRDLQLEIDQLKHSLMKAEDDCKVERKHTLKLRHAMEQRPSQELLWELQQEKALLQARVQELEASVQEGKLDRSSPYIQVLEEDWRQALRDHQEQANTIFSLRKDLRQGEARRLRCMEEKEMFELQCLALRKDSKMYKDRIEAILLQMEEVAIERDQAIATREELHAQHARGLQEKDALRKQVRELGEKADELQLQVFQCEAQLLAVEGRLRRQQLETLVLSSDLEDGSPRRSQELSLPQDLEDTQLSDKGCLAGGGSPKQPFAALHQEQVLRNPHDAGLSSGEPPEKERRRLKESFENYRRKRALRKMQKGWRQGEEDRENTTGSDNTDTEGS
B3: Atos homolog protein B (Homo sapiens), Q7L5A3 (parent)
chain: MRHVQAEPSPSSEPEAGPSQPPVRQGALQGGLLMGYSPAGGATSPGVYQVSIFSPPAGTSEPHRALKRQAPSTEGPRELKRGPGLGAREGLPPEEPSTVGLLGPEGPGLGLGVASQHFSHRGLCVVEQRSSVTSSWTSGAWSPPCPPSNASCNTLHTRDWASPDPGGQGSLGESPGPAPPGQLHTLDTDLHSLAQIGGKSPVAGVGNGGSLWPRESPGTANGHSPEHTPPGPGPPGPCPTKRRLLPAGEAPDVSSEEEGPAPRRRRGSLGHPTAANSSDAKATPFWSHLLPGPKEPVLDPTDCGPMGRRLKGARRLKLSPLRSLRKGPGLLSPPSASPVPTPAVSRTLLGNFEESLLRGRFAPSGHIEGFTAEIGASGSYCPQHVTLPVTVTFFDVSEQNAPAPFLGIVDLNPLGRKGYSVPKVGTVQVTLFNPNQTVVKMFLVTFDFSDMPAAHMTFLRHRLFLVPVGEEGNANPTHRLLCYLLHLRFRSSRSGRLSLHGDIRLLFSRRSLELDTGLPYELQAVTEAPHNPRYSPLP

The variants in one test derive from B1. The settings on record: with cby2_human CBY2, Q8NA61.
For the variant R212H, the “effect of a mutation on the interaction” value was “with no effect”.

A further test covers variants of B2. The settings on record: with card9_human CARD9, Q9H257.
Regarding R268H, the “effect of a mutation on the interaction” value is given as “with no effect”.

Variants of B3 are the subject of another test. Particulars: with mdfi_human MDFI.
As to C381Y, the “effect of a mutation on the interaction” value is reported as “with no effect”.

The variants in another test derive from B3. The settings on record: with ikzf1_human IKZF1, Q13422.
ikzf1_human IKZF1, Q13422, sequence (Q13422 whole entry): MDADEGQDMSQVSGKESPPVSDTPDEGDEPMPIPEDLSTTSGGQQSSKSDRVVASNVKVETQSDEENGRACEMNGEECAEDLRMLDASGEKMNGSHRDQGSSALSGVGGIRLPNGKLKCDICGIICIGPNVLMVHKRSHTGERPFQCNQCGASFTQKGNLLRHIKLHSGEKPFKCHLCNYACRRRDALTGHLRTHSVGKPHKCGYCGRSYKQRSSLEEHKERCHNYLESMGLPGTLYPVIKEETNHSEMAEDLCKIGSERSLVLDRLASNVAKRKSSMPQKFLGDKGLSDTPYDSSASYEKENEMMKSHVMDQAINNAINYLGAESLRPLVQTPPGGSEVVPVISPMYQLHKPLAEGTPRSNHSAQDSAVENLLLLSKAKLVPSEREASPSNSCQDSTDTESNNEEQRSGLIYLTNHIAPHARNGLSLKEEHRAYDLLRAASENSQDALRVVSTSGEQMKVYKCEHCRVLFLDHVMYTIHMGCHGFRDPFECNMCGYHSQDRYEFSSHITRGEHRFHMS
Turning to C381Y, the “effect of a mutation on the interaction” value was “disrupting interaction strength”.

The variants in a further test derive from B3. Particulars: with dnja3_human DNAJA3, Q96EY1.
dnja3_human DNAJA3, Q96EY1, sequence (Q96EY1 whole entry): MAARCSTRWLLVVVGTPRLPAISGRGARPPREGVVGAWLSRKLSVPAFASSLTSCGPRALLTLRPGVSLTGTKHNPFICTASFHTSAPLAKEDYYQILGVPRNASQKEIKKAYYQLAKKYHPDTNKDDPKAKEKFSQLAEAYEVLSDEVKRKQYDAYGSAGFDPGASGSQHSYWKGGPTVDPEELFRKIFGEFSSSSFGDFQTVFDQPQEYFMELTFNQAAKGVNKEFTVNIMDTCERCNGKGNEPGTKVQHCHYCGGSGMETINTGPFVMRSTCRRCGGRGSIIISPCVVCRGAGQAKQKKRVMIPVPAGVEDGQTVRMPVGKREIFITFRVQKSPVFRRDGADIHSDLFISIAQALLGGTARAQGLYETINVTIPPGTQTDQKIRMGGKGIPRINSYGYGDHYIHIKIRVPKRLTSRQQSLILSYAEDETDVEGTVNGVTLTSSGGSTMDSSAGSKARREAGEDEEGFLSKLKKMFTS
C381Y: the “effect of a mutation on the interaction” value is “disrupting interaction strength”.
